# Reference: publication PMC5908803, “Cryo-EM structure of the RC-LH core complex from an early branching photosynthetic prokaryote” (Nature Communications, 2018)
# B1: LHαβ heterodimer of Roseiflexus castenholzii (complex)
# chain 1: MKDRPFEFRTSVVVSTLLGLVMALLIHFVVLSSGAFNWLRAP
# chain 2: MTDKPQNDLVPDQWKPLFNNAQWLVHDIVVKTIYGGLIIAVIAHVLCWAWTPWIR
# notes: α subunit of the LH antenna, Roseiflexus castenholzii, encoded by puf A; β subunit of the LH antenna, Roseiflexus castenholzii, encoded by puf B; Each heterodimer holds two B880, one B800 and one keto-γ-carotene; 15 of them form the open elliptical LH ring; also called LHαβ subunit
# Target: the molecule itself
# Test: cryo-EM structure; single-particle cryo-EM of the rcRC-LH complex purified whole from native membranes, 3 mg/mL in 0.02% DDM, 150 mM NaCl, 50 mM Tris-HCl pH 8.0; 4.1 Å (subunit X helix seen after low-pass filter to 6 Å)
protein,measurement,value
B1,stoichiometry N,15
